Measured values published in IntAct's records for PubMed 35512704.

B1: Speckle-type POZ protein (Homo sapiens), O43791 (parent)
chain: MSRVPSPPPPAEMSSGPVAESWCYTQIKVVKFSYMWTINNFSFCREEMGEVIKSSTFSSGANDKLKWCLRVNPKGLDEESKDYLSLYLLLVSCPKSEVRAKFKFSILNAKGEETKAMESQRAYRFVQGKDWGFKKFIRRDFLLDEANGLLPDDKLTLFCEVSVVQDSVNISGQNTMNMVKVPECRLADELGGLWENSRFTDCCLCVAGQEFQAHKAILAARSPVFSAMFEHEMEESKKNRVEINDVEPEVFKEMMCFIYTGKAPNLDKMADDLLAAADKYALERLKVMCEDALCSNLSVENAAEILILADLHSADQLKTQAVDFINYHASDVLETSGWKSMVVSHPHLVAEAYRSLASAQCPFLGPPRKRLKQS
partner: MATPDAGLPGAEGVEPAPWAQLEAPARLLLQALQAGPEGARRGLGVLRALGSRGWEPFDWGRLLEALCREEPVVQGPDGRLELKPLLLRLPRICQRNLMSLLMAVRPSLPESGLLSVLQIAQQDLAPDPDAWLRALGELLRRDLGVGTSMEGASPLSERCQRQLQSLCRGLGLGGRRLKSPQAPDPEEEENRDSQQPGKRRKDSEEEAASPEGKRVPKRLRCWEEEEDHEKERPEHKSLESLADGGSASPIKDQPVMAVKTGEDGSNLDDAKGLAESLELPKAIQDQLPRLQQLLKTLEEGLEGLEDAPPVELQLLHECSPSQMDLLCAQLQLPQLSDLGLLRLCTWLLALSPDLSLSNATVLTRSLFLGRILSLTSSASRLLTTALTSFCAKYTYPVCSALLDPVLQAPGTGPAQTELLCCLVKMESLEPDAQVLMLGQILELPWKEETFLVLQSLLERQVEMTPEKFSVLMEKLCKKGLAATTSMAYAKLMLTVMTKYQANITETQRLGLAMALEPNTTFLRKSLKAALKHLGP
B2: Speckle-type POZ protein (Homo sapiens), O43791 (parent)
chain: B1 chain
partner: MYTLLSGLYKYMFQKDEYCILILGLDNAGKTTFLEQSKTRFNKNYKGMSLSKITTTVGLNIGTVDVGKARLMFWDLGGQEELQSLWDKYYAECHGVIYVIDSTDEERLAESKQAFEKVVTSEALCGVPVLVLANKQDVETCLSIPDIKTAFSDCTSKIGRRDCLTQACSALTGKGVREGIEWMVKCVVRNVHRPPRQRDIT
B3: Speckle-type POZ protein (Homo sapiens), O43791 (parent)
chain: B1 chain
partner: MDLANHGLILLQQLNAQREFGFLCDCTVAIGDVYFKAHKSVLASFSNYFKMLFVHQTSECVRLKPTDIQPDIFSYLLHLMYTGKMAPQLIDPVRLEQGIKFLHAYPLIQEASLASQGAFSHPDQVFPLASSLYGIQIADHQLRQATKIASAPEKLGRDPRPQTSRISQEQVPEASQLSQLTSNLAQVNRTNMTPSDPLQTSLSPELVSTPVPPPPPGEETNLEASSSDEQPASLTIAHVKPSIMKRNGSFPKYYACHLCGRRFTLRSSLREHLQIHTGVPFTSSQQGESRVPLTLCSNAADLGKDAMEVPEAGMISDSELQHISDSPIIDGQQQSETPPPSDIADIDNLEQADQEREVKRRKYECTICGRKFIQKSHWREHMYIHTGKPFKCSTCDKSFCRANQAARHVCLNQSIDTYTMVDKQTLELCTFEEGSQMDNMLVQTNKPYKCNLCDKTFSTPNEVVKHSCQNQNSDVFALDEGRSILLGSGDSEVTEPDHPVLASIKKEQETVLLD
B4: Speckle-type POZ protein (Homo sapiens), O43791 (parent)
chain: B1 chain
partner: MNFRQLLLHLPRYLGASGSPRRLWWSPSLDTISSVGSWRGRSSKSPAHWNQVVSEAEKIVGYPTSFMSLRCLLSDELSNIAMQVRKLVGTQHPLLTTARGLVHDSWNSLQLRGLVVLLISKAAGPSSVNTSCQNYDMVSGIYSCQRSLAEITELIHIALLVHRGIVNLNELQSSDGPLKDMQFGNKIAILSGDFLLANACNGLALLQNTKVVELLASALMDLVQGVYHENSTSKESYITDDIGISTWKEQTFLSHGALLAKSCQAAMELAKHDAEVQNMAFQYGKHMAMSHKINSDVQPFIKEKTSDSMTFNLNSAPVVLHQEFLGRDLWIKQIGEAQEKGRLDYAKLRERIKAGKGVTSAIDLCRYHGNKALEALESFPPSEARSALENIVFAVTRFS
B5: Speckle-type POZ protein (Homo sapiens), O43791 (parent)
chain: B1 chain
partner: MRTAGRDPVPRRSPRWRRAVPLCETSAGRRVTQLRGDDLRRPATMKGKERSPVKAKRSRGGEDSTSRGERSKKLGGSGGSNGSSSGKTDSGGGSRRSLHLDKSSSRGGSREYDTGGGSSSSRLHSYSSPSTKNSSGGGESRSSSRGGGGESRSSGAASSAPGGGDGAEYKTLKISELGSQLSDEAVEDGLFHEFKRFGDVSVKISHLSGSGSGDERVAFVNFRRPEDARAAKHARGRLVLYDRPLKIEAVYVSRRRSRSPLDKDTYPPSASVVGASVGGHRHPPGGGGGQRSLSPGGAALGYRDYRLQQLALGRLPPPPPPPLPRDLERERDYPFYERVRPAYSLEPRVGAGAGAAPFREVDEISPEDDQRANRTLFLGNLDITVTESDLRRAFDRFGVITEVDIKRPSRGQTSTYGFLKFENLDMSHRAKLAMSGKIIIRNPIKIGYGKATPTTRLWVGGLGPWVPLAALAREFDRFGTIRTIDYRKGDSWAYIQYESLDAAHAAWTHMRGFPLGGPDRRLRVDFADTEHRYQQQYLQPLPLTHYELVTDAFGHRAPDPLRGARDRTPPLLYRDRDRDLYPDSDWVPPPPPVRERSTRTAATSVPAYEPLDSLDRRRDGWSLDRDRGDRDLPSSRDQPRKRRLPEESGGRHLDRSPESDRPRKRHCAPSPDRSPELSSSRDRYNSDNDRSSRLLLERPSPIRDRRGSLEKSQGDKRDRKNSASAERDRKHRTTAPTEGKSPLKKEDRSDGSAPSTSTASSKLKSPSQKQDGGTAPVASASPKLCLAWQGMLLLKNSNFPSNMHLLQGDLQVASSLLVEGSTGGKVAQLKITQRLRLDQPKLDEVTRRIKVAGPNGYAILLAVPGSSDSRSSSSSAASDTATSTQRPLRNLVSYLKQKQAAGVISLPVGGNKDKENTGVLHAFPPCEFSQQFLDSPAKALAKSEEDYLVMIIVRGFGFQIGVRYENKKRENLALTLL
B6: Speckle-type POZ protein (Homo sapiens), O43791 (parent)
chain: B1 chain
partner: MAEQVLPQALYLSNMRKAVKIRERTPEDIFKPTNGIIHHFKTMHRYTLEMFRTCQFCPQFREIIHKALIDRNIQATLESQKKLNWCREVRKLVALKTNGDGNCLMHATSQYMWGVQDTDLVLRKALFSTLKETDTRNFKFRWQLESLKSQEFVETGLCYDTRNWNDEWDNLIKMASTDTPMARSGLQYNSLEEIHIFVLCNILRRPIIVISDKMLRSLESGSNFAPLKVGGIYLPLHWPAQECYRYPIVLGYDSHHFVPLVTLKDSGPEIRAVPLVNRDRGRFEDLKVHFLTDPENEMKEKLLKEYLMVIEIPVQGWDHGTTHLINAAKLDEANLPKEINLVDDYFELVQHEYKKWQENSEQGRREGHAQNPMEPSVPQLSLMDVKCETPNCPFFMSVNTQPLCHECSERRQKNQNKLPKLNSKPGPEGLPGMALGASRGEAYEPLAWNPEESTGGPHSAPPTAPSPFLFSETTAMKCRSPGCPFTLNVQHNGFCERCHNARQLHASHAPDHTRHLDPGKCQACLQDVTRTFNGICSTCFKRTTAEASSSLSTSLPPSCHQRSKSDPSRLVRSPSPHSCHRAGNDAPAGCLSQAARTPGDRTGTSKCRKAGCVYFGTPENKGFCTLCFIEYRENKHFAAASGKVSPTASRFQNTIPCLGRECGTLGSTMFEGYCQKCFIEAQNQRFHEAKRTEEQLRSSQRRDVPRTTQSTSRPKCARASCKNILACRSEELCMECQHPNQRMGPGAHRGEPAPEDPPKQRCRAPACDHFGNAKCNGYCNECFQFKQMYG

Variants of: B1
Details: with fance_human FANCE

Row | effect of a mutation on the interaction | Variant
1 | with no effect | Y87C

Variants of: B2
Details: with arfrp_human ARFRP1, Q13795

Row | effect of a mutation on the interaction | Variant
2 | with no effect | Y87C

Variants of: B3
Details: with zbtb2_human ZBTB2, Q8N680

Row | effect of a mutation on the interaction | Variant
3 | with no effect | Y87C

Variants of: B3
Details: with zbtb2_human ZBTB2, Q8N680
Remark: another data set of the same source

Row | effect of a mutation on the interaction | Variant
4 | with no effect | F133L

Variants of: B3
Details: with zbtb2_human ZBTB2, Q8N680
Remark: another data set of the same source

Row | effect of a mutation on the interaction | Variant
5 | causing an interaction | F133L

Variants of: B3
Details: with zbtb2_human ZBTB2, Q8N680
Remark: another data set of the same source

Row | effect of a mutation on the interaction | Variant
6 | causing an interaction | F133V

Variants of: B4
Details: with dlp1_human PDSS2, Q86YH6

Row | effect of a mutation on the interaction | Variant
7 | with no effect | F133L

Variants of: B4
Details: with dlp1_human PDSS2, Q86YH6
Remark: another data set of the same source

Row | effect of a mutation on the interaction | Variant
8 | with no effect | Y87C

Variants of: B5
Details: with rbm15_human RBM15, Q96T37

Row | effect of a mutation on the interaction | Variant
9 | with no effect | F133L

Variants of: B5
Details: with rbm15_human RBM15, Q96T37
Remark: another data set of the same source

Row | effect of a mutation on the interaction | Variant
10 | with no effect | F133V

Variants of: B6
Details: with tnap3_human TNFAIP3, P21580

Row | effect of a mutation on the interaction | Variant
11 | with no effect | Y87C
